Substrate in the data set: [O-][Cl+]O
Briefly: O2 release, Clark-type oxygen electrode. Format: biochemical, Nitrospira defluvii. The note with it: 50 mM phosphate pH 7.0, 30 °C, O2-free buffer, low heme occupancy. The source says: O2 release, Clark-type oxygen electrode on NdCld

B1: NdCld (Nitrospira defluvii; E236A/R199Q) (protein)
chain: ADREKLLTESGVYGTFATFQMDHDWWDLPGESRVISVAEVKGLVEQWSGKILVESYLLRGLSDHADLMFRVHARTLSDTQQFLSAFMGTRLGRHLTSGGLLHGVSKKPTYVAGFPESMKTELQVNGESGSRPYAIVIPIKKDAEWWALDQEARTALMQEHTQAALPYLKTVKQKLYHSTGLDDVDFITYFETERLEDFHNLVRALQQVKAFRHNRRFGHPTLLGTMSPLDEILEKFAQ
notes: N-terminal TEV-cleavable Strep-II tag, N-terminal signal peptide removed; expressed in E. coli Tuner (DE3), StrepTrap purified; homopentamer with heme b
Take B1: the Km – broadly, the concentration of substrate that gives half-maximal velocity – amounted to 184 ± 36 µM; the kcat – broadly, the number of substrate molecules converted per active site and unit of time at saturation – worked out at 0.9 s⁻¹; the kcat/Km (usually the turnover number divided by the Michaelis constant) worked out at 4600 M⁻¹ s⁻¹.
